These results are taken from publication PMC10549240 (RSC Chemical Biology, 2023).

Sequences and labels used below:
B1: Bio-PepK-StA (peptide)
peptide: {Biotin-AEEA}-KIAALKEKIAALKEKIAALKE-NH2
SMILES: CC[C@H](C)[C@H](NC(=O)[C@H](CCCCN)NC(=O)COCCOCCNC(=O)CCCC[C@@H]1SC[C@@H]2NC(=O)N[C@@H]21)C(=O)N[C@@H](C)C(=O)N[C@@H](C)C(=O)N[C@@H](CC(C)C)C(=O)N[C@@H](CCCCN)C(=O)N[C@@H](CCC(=O)O)C(=O)N[C@@H](CCCCN)C(=O)N[C@H](C(=O)N[C@@H](C)C(=O)N[C@@H](C)C(=O)N[C@@H](CC(C)C)C(=O)N[C@@H](CCCCN)C(=O)N[C@@H](CCC(=O)O)C(=O)N[C@@H](CCCCN)C(=O)N[C@H](C(=O)N[C@@H](C)C(=O)N[C@@H](C)C(=O)N[C@@H](CC(C)C)C(=O)N[C@@H](CCCCN)C(=O)N[C@@H](CCC(=O)O)C(N)=O)[C@@H](C)CC)[C@@H](C)CC
B2: Bio-PepK (peptide)
peptide: {Biotin-AEEA}-KIAALKEKIAALKEKIAALKE-NH2
SMILES: CC[C@H](C)[C@H](NC(=O)[C@H](CCCCN)NC(=O)COCCOCCNC(=O)CCCC[C@@H]1SC[C@@H]2NC(=O)N[C@@H]21)C(=O)N[C@@H](C)C(=O)N[C@@H](C)C(=O)N[C@@H](CC(C)C)C(=O)N[C@@H](CCCCN)C(=O)N[C@@H](CCC(=O)O)C(=O)N[C@@H](CCCCN)C(=O)N[C@H](C(=O)N[C@@H](C)C(=O)N[C@@H](C)C(=O)N[C@@H](CC(C)C)C(=O)N[C@@H](CCCCN)C(=O)N[C@@H](CCC(=O)O)C(=O)N[C@@H](CCCCN)C(=O)N[C@H](C(=O)N[C@@H](C)C(=O)N[C@@H](C)C(=O)N[C@@H](CC(C)C)C(=O)N[C@@H](CCCCN)C(=O)N[C@@H](CCC(=O)O)C(N)=O)[C@@H](C)CC)[C@@H](C)CC

*: point of attachment. Biotin = O=C1N[C@H]2[C@H](CS[C@H]2CCCCC(=O)*)N1; AEEA = NCCOCCOCC(=O)O

In the assay “Bio-PepK-StA” the target is B1. Nature of the assay: fluorescence polarisation.
Another assay addresses Fluo-PepE (fluorescein (5(6)-carboxyfluorescein)-Aoa (8-amino-3,6-dioxa-octanoic acid) on the N-terminus; C-terminal amide). The experiment in a line: fluorescence polarisation. (Fluorescence polarisation rises when a labelled molecule tumbles more slowly, as on binding a larger partner.)
The target in a further assay is activated PepE-Bio (N-terminal acetyl; C-terminal Aoa-Aoa-Lys(biotin)-NH2; glutamate side chains activated with EDC/NHS (NHS esters)). The experiment in a line: cross-linking.

With {fluorescein-AEEA}-EIAALEREIAALEREI-NH2 [PepE(-5C)], the “fold drop in affinity against full-length PepE” value (“fold drop in affinity” below) in the assay with Bio-PepK-StA was ~40 fold.
Turning to B1, the binding result in the assay with Fluo-PepE is on record as “binds”.
As for B2, the binding result in the assay with activated PepE-Bio is reported as “binds”.
{fluorescein-AEEA}-EIAALEREIAALEREIA-NH2 [PepE(-4C)]: the “fold drop in affinity” value in the assay with Bio-PepK-StA was ~40 fold.
For {fluorescein-AEEA}-EIAALEREIAALEREIAALE-NH2 [PepE(-1C)], the binding result with Bio-PepK-StA is recorded as “binds”.
{fluorescein-AEEA}-EIAALEREIAALEREIAA-NH2 [PepE(-3C)]: in the assay with Bio-PepK-StA, the “fold drop in affinity” value was ~40 fold.
On to {fluorescein-AEEA}-EIAALEREIAALEREIAAL-NH2 [PepE(-2C)], for which the binding result with Bio-PepK-StA is recorded as “binds”.
